Measurements reported in patent US20160289336A1 (F STAR BIOTECHNOLOGY, published 2016).

Experiments:
[1] = target: T1, dimeric HER2 (extracellular domain of HER2 with Fc tag, R&D) (human, UniProt P04626 23-652); assay: ELISA, dimeric HER2 (ECD Fc-tag) coated at 2 µg/ml, biotinylated H561-4, Strep-HRP
T1 construct: Bought protein; also called HER2 ECD Fc-tag; Fc-tagged HER2 ECD; not shown: Fc tag of the bought R&D protein
Method: (§1) Monomeric HER2 (HER2 ECD untagged) and dimeric HER2 (HER2 ECD Fc-tag) were immobilised at 2 μg/ml on a 96-well maxisorp plate (Nunc) in PBS overnight at 4° C. The plates were blocked for 1 hour with 200 μl of 5% BSA in PBS. […] The dilution series was removed and the plate was washed 3× with phosphate buffered saline with Tween 20 (PBST).
(§2) A 1:5000 dilution of Strep-HRP (Abcam ab) was prepared in 5% BSA and 100 μl was added to the plate and incubated for 1 hour at RT. The plate was then washed 3× with PBST before 100 μl of TMB (Roche) were added, and the plate incubated at RT for 2 mins. The reaction was stopped using 100 μl of 2 M H₂SO₄ and the plate was read at 450 nm.

[2] = target: T2, monomeric HER2 (extracellular domain of HER2 without tag) (human, UniProt P04626 23-652); assay: ELISA, monomeric HER2 (ECD untagged) coated at 2 µg/ml, biotinylated H561-4, Strep-HRP; monomeric HER2, not dimeric HER2
T2 construct: also called HER2 ECD untagged; untagged HER2 ECD, in house
Method: as §1, §2

B1: antigen-binding Fc fragment H561-4 (designed binder)
chain: TCPPCPAPELLGGPSVFLFPPKPKDTLMISRTPEVTCVVVDVSHEDPEVKFNWYVDGVEVHNAKTKPREEQYNSTYRVVSVLTVLHQDWLNGKEYKCKVSNKALPAPIEKTISKAKGQPREPQVYTLPPSRDEFFTYWVSLTCLVKGFYPSDIAVEWESNGQPENNYKTTPPVLDSDGSFFLYSKLTVDRRRWTAGNVFSCSVMHEALHNHYTQKSLSLSPGK
notes: C-terminal K or GK may be clipped in manufacture; also called FS102; Fcab
[1]
  EC50: 1.7 nM
[2]
  EC50: 20.6 nM
